Patent publication US20210147507A1, “METHODS TO AUGMENT OR ALTER SIGNAL TRANSDUCTION” (Bellicum Pharmaceuticals, Inc., priority 2017, published 2021)

Tested on: chimeric Caspase-9 polypeptide
Assay: Caspase-9 mutant classes and basal activity (Table 5)
Format: cell-based
Conditions: Caspase-9 mutant class; for Basal Activity: basal (ligand-independent) signaling compared with unmodified chimeric Caspase-9; for IC50: ligand IC50 compared with unmodified chimeric Caspase-9
Text: Even though homo-dimerization of wild-type initiator Caspase-9 is energetically unfavorable, making them mostly monomers in solution [14-16], the low-level inherent basal activity of unprocessed Caspase-9 [15, 17] is enhanced in the presence of the Apaf-1-based “apoptosome”, its natural allosteric regulator [6]. Moreover, supra-physiological expression levels and/or co-localization could lead to proximity-driven dimerization, further enhancing basal activation. The modified cells of the present application may comprise nucleic acids coding for a chimeric Caspase-9 polypeptide having lower basal signaling activity. Polynucleotides comprising Caspase-9 mutants with lower basal signaling may be expressed in the modified cells used for cell therapy herein. In these examples, the modified cells may include a safety switch, comprising a polynucleotide encoding a lower basal signaling chimeric Caspase-9 polypeptide. In the event of an adverse event following administration of the modified cells comprising the chimeric signaling polypeptides or chimeric antigen receptors herein, Caspase-9 activity may be induced by administering the dimerizer to the patient, thus inducing apoptosis and clearance of some, or all of the modified cells. In some examples, the amount of dimerizer administered may be determined as an amount designed to remove the highest amount, at least 80% or 90% of the modified cells. In other examples, the amount of dimerizer administered may be determined as an amount designed to remove only a portion of the modified cells, in order to alleviate negative symptoms or conditions, while leaving a sufficient amount of therapeutic modified cells in the patient, in order to continue therapy. Methods for using chimeric Caspase-9 polypeptides to induce apoptosis are discussed in PCT Application Number PCT/US2011/037381 by Malcolm K. Brenner et al., titled Methods for Inducing Selective Apoptosis, filed May 20, 2011, and in U.S. patent application Ser. No. 13/112,739 by Malcolm K. Brenner et al., titled Methods for Inducing Selective Apoptosis, filed May 20, 2011, issued Jul. 28, 2015 as U.S. Pat. No. 9,089,520. Chimeric caspase polypeptides having modified basal activity are discussed in PCT Application Serial Number PCT/US2014/022004 by David Spencer et al., titled Modified Caspase Polypeptides and Uses Thereof, filed Mar. 7, 2014, published Oct. 9, 2014 as WO2014/164348, and in U.S. patent application Ser. No. 13/792,135 by David Spencer et al., titled Modified Caspase Polypeptides and Uses Thereof, filed Mar. 7, 2014; and in U.S. patent application Ser. No. 14/640,553 by Spencer et al., filed Mar. 6, 2015. Methods for inducing partial apoptosis of the therapeutic modified cells are discussed in PCT Application Number PCT/US14/040964 by Kevin Slawin et al., titled Methods for Inducing Partial Apoptosis Using Caspase Polypeptides, filed Jun. 4, 2014, published Dec. 11, 2014 as WO2014/197638, and in U.S. patent application Ser. No. 14/296,404 by Kevin Slawin et al., titled Methods for Inducing Partial Apoptosis Using Caspase Polypeptides, filed Jun. 4, 2014. These patent applications and publications are all incorporated by reference herein in their entireties.

Chain of chimeric Caspase-9 polypeptide (P62942 2-108 F37V limits assumed): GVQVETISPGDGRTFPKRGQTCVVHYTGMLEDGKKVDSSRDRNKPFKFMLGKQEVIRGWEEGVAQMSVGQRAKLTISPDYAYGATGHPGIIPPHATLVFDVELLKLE

Molecule | Basal Activity | IC50
N405Q (protein) GFGDVGALESLRGNADLAYILSMEPCGHCLIINNVNFCRESGLRTRTGSNIDCEKLRRRFSSLHFMVEVKGDLTAKKMVLALLELARQDHGALDCCVVVILSHGCQASHLQFPGAVYGTDGCPVSVEKIVNIFNGTSCPSLGGKPKLFFIQACGGEQKDHGFEVASTSPEDESPGSNPEPDATPFQEGLRTFDQLDAISSLPTPSDIFVSYSTFPGFVSWRDPKSGSWYVETLDDIFEQWAHSEDLQSLLLRVANAVSVKGIYKQMPGCFQFLRKKLFFKTSASRA | Decreased | higher IC50
D330V (protein) GFGDVGALESLRGNADLAYILSMEPCGHCLIINNVNFCRESGLRTRTGSNIDCEKLRRRFSSLHFMVEVKGDLTAKKMVLALLELARQDHGALDCCVVVILSHGCQASHLQFPGAVYGTDGCPVSVEKIVNIFNGTSCPSLGGKPKLFFIQACGGEQKDHGFEVASTSPEDESPGSNPEPDATPFQEGLRTFDQLVAISSLPTPSDIFVSYSTFPGFVSWRDPKSGSWYVETLDDIFEQWAHSEDLQSLLLRVANAVSVKGIYKQMPGCFNFLRKKLFFKTSASRA | Decreased | higher IC50
S183A (protein) GFGDVGALESLRGNADLAYILSMEPCGHCLIINNVNFCRESGLRTRTGANIDCEKLRRRFSSLHFMVEVKGDLTAKKMVLALLELARQDHGALDCCVVVILSHGCQASHLQFPGAVYGTDGCPVSVEKIVNIFNGTSCPSLGGKPKLFFIQACGGEQKDHGFEVASTSPEDESPGSNPEPDATPFQEGLRTFDQLDAISSLPTPSDIFVSYSTFPGFVSWRDPKSGSWYVETLDDIFEQWAHSEDLQSLLLRVANAVSVKGIYKQMPGCFNFLRKKLFFKTSASRA | Decreased | higher IC50
D330A-N405Q (protein) GFGDVGALESLRGNADLAYILSMEPCGHCLIINNVNFCRESGLRTRTGSNIDCEKLRRRFSSLHFMVEVKGDLTAKKMVLALLELARQDHGALDCCVVVILSHGCQASHLQFPGAVYGTDGCPVSVEKIVNIFNGTSCPSLGGKPKLFFIQACGGEQKDHGFEVASTSPEDESPGSNPEPDATPFQEGLRTFDQLAAISSLPTPSDIFVSYSTFPGFVSWRDPKSGSWYVETLDDIFEQWAHSEDLQSLLLRVANAVSVKGIYKQMPGCFQFLRKKLFFKTSASRA | Decreased | higher IC50
D330G (protein) GFGDVGALESLRGNADLAYILSMEPCGHCLIINNVNFCRESGLRTRTGSNIDCEKLRRRFSSLHFMVEVKGDLTAKKMVLALLELARQDHGALDCCVVVILSHGCQASHLQFPGAVYGTDGCPVSVEKIVNIFNGTSCPSLGGKPKLFFIQACGGEQKDHGFEVASTSPEDESPGSNPEPDATPFQEGLRTFDQLGAISSLPTPSDIFVSYSTFPGFVSWRDPKSGSWYVETLDDIFEQWAHSEDLQSLLLRVANAVSVKGIYKQMPGCFNFLRKKLFFKTSASRA | Decreased | higher IC50

Second part, the molecule after the results:

Basal Activity | IC50 | Molecule
Decreased | higher IC50 | S196A (protein) GFGDVGALESLRGNADLAYILSMEPCGHCLIINNVNFCRESGLRTRTGSNIDCEKLRRRFSALHFMVEVKGDLTAKKMVLALLELARQDHGALDCCVVVILSHGCQASHLQFPGAVYGTDGCPVSVEKIVNIFNGTSCPSLGGKPKLFFIQACGGEQKDHGFEVASTSPEDESPGSNPEPDATPFQEGLRTFDQLDAISSLPTPSDIFVSYSTFPGFVSWRDPKSGSWYVETLDDIFEQWAHSEDLQSLLLRVANAVSVKGIYKQMPGCFNFLRKKLFFKTSASRA
Decreased | higher IC50 | T317A (protein) GFGDVGALESLRGNADLAYILSMEPCGHCLIINNVNFCRESGLRTRTGSNIDCEKLRRRFSSLHFMVEVKGDLTAKKMVLALLELARQDHGALDCCVVVILSHGCQASHLQFPGAVYGTDGCPVSVEKIVNIFNGTSCPSLGGKPKLFFIQACGGEQKDHGFEVASTSPEDESPGSNPEPDAAPFQEGLRTFDQLDAISSLPTPSDIFVSYSTFPGFVSWRDPKSGSWYVETLDDIFEQWAHSEDLQSLLLRVANAVSVKGIYKQMPGCFNFLRKKLFFKTSASRA
Decreased | higher IC50 | D330A-S144A (protein) GFGDVGALEALRGNADLAYILSMEPCGHCLIINNVNFCRESGLRTRTGSNIDCEKLRRRFSSLHFMVEVKGDLTAKKMVLALLELARQDHGALDCCVVVILSHGCQASHLQFPGAVYGTDGCPVSVEKIVNIFNGTSCPSLGGKPKLFFIQACGGEQKDHGFEVASTSPEDESPGSNPEPDATPFQEGLRTFDQLAAISSLPTPSDIFVSYSTFPGFVSWRDPKSGSWYVETLDDIFEQWAHSEDLQSLLLRVANAVSVKGIYKQMPGCFNFLRKKLFFKTSASRA
Decreased | higher IC50 | D330S (protein) GFGDVGALESLRGNADLAYILSMEPCGHCLIINNVNFCRESGLRTRTGSNIDCEKLRRRFSSLHFMVEVKGDLTAKKMVLALLELARQDHGALDCCVVVILSHGCQASHLQFPGAVYGTDGCPVSVEKIVNIFNGTSCPSLGGKPKLFFIQACGGEQKDHGFEVASTSPEDESPGSNPEPDATPFQEGLRTFDQLSAISSLPTPSDIFVSYSTFPGFVSWRDPKSGSWYVETLDDIFEQWAHSEDLQSLLLRVANAVSVKGIYKQMPGCFNFLRKKLFFKTSASRA
Decreased | higher IC50 | D330N (protein) GFGDVGALESLRGNADLAYILSMEPCGHCLIINNVNFCRESGLRTRTGSNIDCEKLRRRFSSLHFMVEVKGDLTAKKMVLALLELARQDHGALDCCVVVILSHGCQASHLQFPGAVYGTDGCPVSVEKIVNIFNGTSCPSLGGKPKLFFIQACGGEQKDHGFEVASTSPEDESPGSNPEPDATPFQEGLRTFDQLNAISSLPTPSDIFVSYSTFPGFVSWRDPKSGSWYVETLDDIFEQWAHSEDLQSLLLRVANAVSVKGIYKQMPGCFNFLRKKLFFKTSASRA
Decreased | higher IC50 | S195A (protein) GFGDVGALESLRGNADLAYILSMEPCGHCLIINNVNFCRESGLRTRTGSNIDCEKLRRRFASLHFMVEVKGDLTAKKMVLALLELARQDHGALDCCVVVILSHGCQASHLQFPGAVYGTDGCPVSVEKIVNIFNGTSCPSLGGKPKLFFIQACGGEQKDHGFEVASTSPEDESPGSNPEPDATPFQEGLRTFDQLDAISSLPTPSDIFVSYSTFPGFVSWRDPKSGSWYVETLDDIFEQWAHSEDLQSLLLRVANAVSVKGIYKQMPGCFNFLRKKLFFKTSASRA
Decreased | higher IC50 | D330A-S144D (protein) GFGDVGALEDLRGNADLAYILSMEPCGHCLIINNVNFCRESGLRTRTGSNIDCEKLRRRFSSLHFMVEVKGDLTAKKMVLALLELARQDHGALDCCVVVILSHGCQASHLQFPGAVYGTDGCPVSVEKIVNIFNGTSCPSLGGKPKLFFIQACGGEQKDHGFEVASTSPEDESPGSNPEPDATPFQEGLRTFDQLAAISSLPTPSDIFVSYSTFPGFVSWRDPKSGSWYVETLDDIFEQWAHSEDLQSLLLRVANAVSVKGIYKQMPGCFNFLRKKLFFKTSASRA
Decreased | higher IC50 | L329E (protein) GFGDVGALESLRGNADLAYILSMEPCGHCLIINNVNFCRESGLRTRTGSNIDCEKLRRRFSSLHFMVEVKGDLTAKKMVLALLELARQDHGALDCCVVVILSHGCQASHLQFPGAVYGTDGCPVSVEKIVNIFNGTSCPSLGGKPKLFFIQACGGEQKDHGFEVASTSPEDESPGSNPEPDATPFQEGLRTFDQEDAISSLPTPSDIFVSYSTFPGFVSWRDPKSGSWYVETLDDIFEQWAHSEDLQSLLLRVANAVSVKGIYKQMPGCFNFLRKKLFFKTSASRA
